Substitutions are numbered along the chain they refer to.

Assay [1] has as its target RSC3 probe. Kind of assay: ELISA-type plate assay (OD450), mAb titrated on RSC3 [panel VRC13c].
For assay [2], the target named is RSC3 probe. The assay is described as follows: ELISA-type plate assay (OD450), mAb titrated on RSC3 [panel VRC13g]. A general note: In an ELISA, binding on a coated surface is turned into a signal by an enzyme label.
The target of assay [3] is RSC3 probe. Kind of assay: ELISA-type plate assay (OD450), mAb titrated on RSC3 [panel VRC13b].
For assay [4], the target named is RSC3 probe. Kind of assay: ELISA-type plate assay (OD450), mAb titrated on RSC3 [panel VRC13d].
Assay [5] addresses RSC3 probe. Kind of assay: ELISA-type plate assay (OD450), mAb titrated on RSC3 [panel VRC13e].
Assay [6] addresses RSC3 probe. Kind of assay: ELISA-type plate assay (OD450), mAb titrated on RSC3 [panel VRC13f].

B1: VRC13c (antibody, V domains shown)
VH: QLQLDQPGAAMKSLGSSLTITCRVSGDDLGSFHFGTYFMIWVRQGPGQGLEYMGGILPSTKTPTYAHKFRGRVSISAPGVPPVLSLALTNLTYDDTATYFCARERGRHFEPKNRDHLEGKFLDLWGRGTFVRVSP
VL: QSVLTQPASVSGSPGQSINISCAGRSDRVSWYQQRPNGVPKLLLFDVYRRPSGVSDRFSGSHSDDTAFLTISGLQTDDEADYYCTSHPYAFGPGTKVNVL
The molecule B1 showed an EC50 (read off the curve) with RSC3 probe [1] of 0.02 µg/mL.

B2: VRC13g (antibody, V domains shown)
VH: QIELRQSGAAMKSPGSSVKLSCTVLGENFGTYFISWIRQAPGQGLEWVGGIVPHSQLQSSAQKFHGRIKISGGGTPPVVSLELTNVTFDDTGTYFCARERGRHVEPKTGDRLAGRYFDIWGRGTGLRVSP
VL: QSVLTQPAFVSGSPGQSITISCTVGTTDVSWYQQRPNSAPRLIIFDVKKRPSGVSDRFSGSSSDNAAFLTIAGLRPEDEAEYYCTSWPYRFGRGTKVDVG
Turning to B2, the half-maximal effective concentration (EC50 (read off the curve)) in the assay with RSC3 probe [2] turned out to be 0.02 µg/mL.

B3: VRC13b (antibody, V domains shown)
VH: QVQLVQSGTALKSPGSSAKLSCTVLGDEFGTYFISWIRQAPGQGLEWVGGIVPHSQLQSSAQKFHGRIIISAGAGVTPPVVSLQLTNLTFEDTGTYFCARERGRHRDPKTGDALRGRYFDFWGRGTGVSVSA
VL: QSVLTQPAFVSGSPGQSITLSCTLGTEDVSWYQQRPNSAPRLIIFDVKKRPSDVSDRFSGHNSDTAAFLTISELRPEDEAEYFCTSWPYRFGRGTKVDVA
The molecule B3 gave an EC50 (read off the curve) in the assay with RSC3 probe [3] of 0.02 µg/mL.

B4: VRC13d (antibody, V domains shown)
VH: QVQLVQSGAVVKSPGSSAKLSCRLLGDEFGTYFISWIRQAPGRGLEWVGGIVPHSQLQSSAQKFHGRFFITGGVTPPIIFLQLTNVTFEDTGTYFCARERGRHRDPKTGKSLRGRYFDFWGRGTGVTVSP
VL: QSVLTQPAFVSASPGQSITLSCNLGTDYVSWYQQRPSSAPRLIIFDVKNRPSGVSDRFSGYNSDTAAFLTISGLQPEDEAEYYCTSWPYNFGPGTKVDVT
As to B4, in the assay with RSC3 probe [4], the EC50 (read off the curve) turned out to be 0.02 µg/mL.

B5: VRC13e (antibody, V domains shown)
V domain 1: QPYIVQSGPAVKGAGSSVTVTCKVDGDDDGIFSFGTYFMVWVRQAPGQGLQYMGGLVPSYAPTYAHKFEGRITISAAGTPPVVSLTLLNLTNDDAATYFCARERGRHYDSKTRENRRGRYFDMWGRGTRITVSP
V domain 2: QSVLTQPASVSGSPGQTISISCSGTFGSDSVSWYQQYPNSAPTLIIFDVHRRPSGISTRFSGSTSGDTASLTISTLHREDEAYYYCTSHPYDFGGGTYVIVL
Turning to B5, the EC50 (read off the curve) in the assay with RSC3 probe [5] worked out at 0.02 µg/mL.

B6: VRC13f (antibody, V domains shown)
V domain 1: B5 V domain 1 with K23R, S33N, L88I, D93A
V domain 2: B5 V domain 2 with Y37F, Y83F
As to B6, the EC50 (read off the curve) with RSC3 probe [6] was 0.02 µg/mL.

A word on the EC50 (read off the curve): it is the concentration needed to bring the measured effect to its halfway point. Lower therefore signals greater potency.
